In a protein production outcome set (Wang et al. 2014):

Experiment: label from the status in PepcDB records
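Also: failed if final PepcDB status was selected cloned or expressed and not failed if soluble or beyond.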

Row | Sequence | protein production
1 | MSERNPILITGAAGEVGGVSRTTVDMLLEQGHPVRAFVRQDDERAHALRQAGAEVFVGDLLTIADVSAALKGVRRIYFSMSLSPYYTDAVSLMAAAARAQGDIEVFVNISEYEQSFMTFEKMTAPEEERRAWLGGLVANWSPQQRAHWVAEQVLDWSGLPTVNIRAAMFVENPLMTWLALEPLANGELRLPFGHHRLAPIAGYDVAELCVKILADPAPHISKSYDLNGPELKDMHGFAEDYAAALGRQVTYVPEDVETWNETYVDTVLGALPHTAEHLKTLTRLMGGGGYRGVTDQLETLLGRPPKTVRWALENHPRIRKLASA | failed
2 | MSERVCAVIVTYNRKALLRECLKAVLSQTRPPDHVLVVDNASTDGTPEMLQEEFPQVEVLRLPENQGGAGGFHEGMKRAYEQGVDWLWLMDDDTIPKAKALEALLEAARLPLDPRPRVLASRQLLPNGLPHPTTAFVNPTDPRHPFLWLRLRPRYRPIRWALFTSVLLHRSLVEEHGLPHKAFFIWEDDLEYTARALRRGLGLQVRDSEVIHKSASKPYISATTGENRLFYGVRNRIWVLRSPAFGPLGKAFLALQLLFGLLTYLAFHPSQKSLQEIGRALRAGLTTSPCLEHHHHHH | failed
3 | MSESCILFFVKYPEPGKVKTRLGEVVGNDKAAMLYRHFVQDMLQGLARLHADLHICYVPGDADLPEKFKAWLGPQHMFAAQQGLDLGERMKHAMQKAFDDGYDRVVLMGSDIPDYPCELVQKALNDLQHYDAAIGPAFDGGYYLIGFRKDSFCPDVFDGIRWGEADVYQPTVEKMRRARLEVLQLPDWNDVDTVWDLNVLYRTNKNSSFRRSSTYALLRENDALIRQYDIDLPGMAPVEKE | not failed
4 | MSESNISGPLAGEYRDLAVYGRLATVTMIWGGTFVAGRYLAGGLSPLLAASLRFLLASLALLGFMAVARIPLVRPSLRQFGQLALLGFFGIFFYNLCFFLGLEQVKASRASLIVALNPAVIALASWALFKERLGRRKLLGIALCLCGAALVICSRDPSALAAQAGSWQGDLLILGCVLGWGVYSLFSRGLNHSLGSLQTVTCSILLGTLMLCAATLIRGEFDLQAVARLNLAQGLSLLYLGVLGSALAYIWYYDGLRRIGATRCGVFIALNPLTAVILGALVLGEQLSPVMGLGGALILGGIYQCNKPLAGGAKKAIL | failed
5 | MSETELRKRQAQFTRELHGDDIGKKTGLSALMSKNNSAQKEAVQKYLRNWDGRTDKDAEERRLEDYNEATHSYYNVVTDFYEYGWGSSFHFSRFYKGESFAASIARHEHYLAYKAGIQRGDLVLDVGCGVGGPAREIARFTGCNVIGLNNNDYQIAKAKYYAKKYNLSDQMDFVKGDFMKMDFEENTFDKVYAIEATCHAPKLEGVYSEIYKVLKPGGTFAVYEWVMTDKYDENNPEHRKIAYEIELGDGIPKMFHVDVARKALKNCGFEVLVSEDLADNDDEIPWYYPLTGEWKYVQNLANLATFFRTSYLGRQFTTAMVTVMEKLGLAPEGSKEVTAALENAAVGLVAGGKSKLFTPMMLFVARKPENAETPSQTSQEATQ | failed
6 | MSETLAVVRASRPNFLLLAPLCAGLGLAVAWQQGQAPELLHTFLVFLGAVLAHAAVNLLNEYDDFRSGLDMITERTPFSGGSGALPEVPTAARRVLWAGLGTLAVVVTIGLYFLWLRGLPLLVLGAAGVVLVLTYTRWITRSPLLCLLAPGMGFGPIMVLGTVIALGASIDTSALLASLVALLMVSELLLINQIPDAEADRAIGRRHLVITLGPEKAAHLVAGLLLASYGVIVAGMVSGYLAMTSLIALAPLPAAVWISLRLPRVLAMPDQLNRVLGANVAVLLSTLALLVTGLSL | failed
7 | MSEVSVLLLAVILDLLIGEPPHRLHPVVWMGSAVEWMRNILGNSRISGIILTIAVAAPFTLPLFLINHLQDPLNLIISSILLSAVISIRMLVTSALEVGGSLKEDIEDARRKLSMLVSRDTTSLSDEQITSAAIETLTENITDSVTAPIFYFILLGLPGAFLYRVVNTLDAMVGYLDSENRDIGWFPARLDDILNYIPSRITGVLMVPAALLLGMNWRGSFRILLRDARRTPSPNSGFTMAAAAGALSVQLEKPGVYVLGDPCDGLDNEKLLDAVKLSSLTLILFTLAAAGVMLVIP | failed
8 | MSEYLHIIIWFFLIEALSFISVPFIRSAGNRLADGGYSVSRALGIMLVTYLSWIFSYILGFSFTAVLIAFFLLCSVSIFLYRKQKFFPGRKVLVVNELVFASGFFFFLLVRTYLPEIYRHEKFMDFAFLNAVIRASSFPPQDPWFAGGLMDFYYYFGYLSVAVFGKLSAVKPSILFNLAVALTFALSLNAFFGMGYNLTRGKIRYGILTAVFGMLLGNLQGLIEFVSVYIRHEQALGGYYWSSSRVIPFTINEFPYFSFIHGDLHSHMLAIPFQLLVLAFLLNMHFRKNEDSIFENSLALLMFSMSLGFLFPFNSWDFPVYFGLAFLVIFAFYCGDYVHNRNLFAAVAKFSNSMIFISIFSFLPYLLFYLDFNPQAAGGFDFVLPELRTETDRFLILFGLFLFLVFSFLITRLDSRRKIVFFVLLAGVSALLSKAWSIPLLAVLLPVFVFSLLLFLKDIPERSASGFVYLLISAASFIALLCEVIFLDDPISGEFARMNTVFKFYMHLWIFLAISAAYSYYDLNSHYAARSGNRKTLKQFVKKGWSVILVILIICCAIFPAVSTVTRIKEMNAEPSLDGMEYMRELDRGDYNAIRWMQANIKGSPVILETSEDDSSYSYACRVSSNTGIPAVIGWARHERFWGRDHEEVKKRIGDVSLIYSTGSEEEAIELIEKYNVTYVYIGTLERQVYDVNTKKFENKAYFEPVYEGSATIYKLKKKP | failed
9 | MSFKDLREFIDHLEQKGRLKRITHPVDPAYEMTEISDRTLRAGGPALLFENPIGYNVPVLTNLFGTPERVAIGMGREDVKELREVGKLLAYLKEPEPPKGFKDALEKLPVFKQVLNMPAKRLRKAPCQDIVWQGDEVDLDKIPVMSCWAEDVAPLLTWGLTVTKGPNKKRQNLGIYRQQKIAKNKIIMRWLAHRGGALDLRDWMETNPGKPFPVSVAFGADPATILGAVTPVPDTLSEYAFAGLLRGSKTEVVKSISNDLEVPASAEIVMEGYIDPNEFADEGPYGDHTGYYNEKEKHHVFTITHITMRKDPIYHSTYTGRPPDEPAVLGVALNEVFVPILQKQFPEIEDFYLPPEGCSYRMAVVTMKKQYPGHAKRVMMGVWSFLRQFMYTKFVIVCDESVNARDWNDVVKAMTEHMDPVRDTLMIDNTPIDSLDFASPVVGLGSKMGLDATIKWDAELATRPQISKQDSKVITEADLESLKQQRPEIIDIYLPPTTNNRFAVVTMKKDQAGQSQALMEYLWDFFAQYTDNKFVILCDEDVNARDWNDIIWAVTTRMDPDRDTTRVSGKAESSSKLGLDATNKFESEVTREWGTPIKKDPKLVAKVDEIWDQLGIL | failed
10 | MSFLVLLLAVLIEKFSALRQRVQRDEPWLNAFARREASPRTAKRPWLTLALLILVPVLLLQLALTIIGSVAYGWLVLPIHLLVLIYSLGRVDLIAVLGPFRDACRRGDAQAAVHVAQRDMRVEADNGEQLLQGVQGYMLWQAFQSFFAVIFWYFVLGPVAALAYRLLALAAEHGKTPPLVERAGQLRHAFDWVPVRLLAASFALVGNFVAVSRVMLHELLNWNISAAQLITRVGCAASEVPPPVIGTQGVTSLDMLWELLVRAAIVWYAGFALWTLLR | failed
11 | MSFNTIIDWNSCTAEQQRQLLMRPAISASESITRTVNDILDNVKARGDEALREYSAKFDKTTVTALKVSAEEIAAASERLSDELKQAMAVAVKNIETFHTAQKLPPVDVETQPGVRCQQVTRPVASVGLYIPGGSAPLFSTVLMLATPASIAGCKKVVLCSPPPIADEILYAAQLCGVQDVFNVGGAQAIAALAFGTESVPKVDKIFGPGNAFVTEAKRQVSQRLDGAAIDMPAGPSEVLVIADSGATPDFVASDLLSQAEHGPDSQVILLTPAADMARRVAEAVERQLAELPRAETARQALNASRLIVTKDLAQCVEISNQYGPEHLIIQTRNARELVDSITSAGSVFLGDWSPESAGDYASGTNHVLPTYGYTATCSSLGLADFQKRMTVQELSKEGFSALASTIETLAAAERLTAHKNAVTLRVNALKEQA | not failed
12 | MSFRKVEKKPTEMGRNMTHEKSDSDSDNEGAPMTVGGYTEFVARSDSDWDEPVYSGKARSNYNLTGTAKGTGPINSFSRKHFPNY | failed
13 | MSGAVPETPYHQRWLAFPDAVSSYRPLESRLAGTSRATADNRTPCTGRLGTPRVFLMATDDVSKAYSSPTFDAEALLGTVISAEDPDRVLIEPWATGVDGVILDVGSGTGRWTGHLASLGHQIEGLEPATRLVELARQTHPSVTFHHGTITDLSDSPKRWAGLLAWYSLIHMGPGELPDALVALRMAVEDGGGLLMSFFSGPSLEPMYHPVATAYRWPLPELAQALETAGFQVTSSHWDPRFPHAYLTAEASKQNLALEHHHHHH | failed
